Here are results for eleven molecules from PMC4720517, “Structural basis for activation, assembly and membrane binding of ESCRT-III Snf7 filaments” (eLife, 2015).

The labels stand for the following.
B1: full-length Snf7^(R52E E88C H118C), MTSL-labeled (natural protein, Saccharomyces cerevisiae, UniProt P39929 1-240, looked up)
chain: MWSSLFGWTSSNAKNKESPTKAIVRLREHINLLSKKQSHLRTQITNQENEAEIFLTKGNKVMAKNALKKKKTIEQLLSKVEGTMESMCQQLFSIESANLNLETMRAMQEGAKAMKTICSGLDIDKVDETMDEIREQVELGDEISDAISRPLITGANEVDEDELDEELDMLAQENANQETSKIVNNNVNAAPISENKVSLPSVPSNKIKQSENSVKDGEEEEDEEDEDEKALRELQAEMGL
modifications: MTSL nitroxide spin label on cysteines 88 and 118
notes: Snf7 (Vps32), S. cerevisiae, full length; also called double-labeled Snf7^(R52E E88C H118C); source: E. coli BL21 or C41, purified (TALON, Superdex-200)
B9: full-length Snf7^(R52E K60C A66C), MTSL-labeled (natural protein, Saccharomyces cerevisiae, UniProt P39929 1-240, looked up)
chain: MWSSLFGWTSSNAKNKESPTKAIVRLREHINLLSKKQSHLRTQITNQENEAEIFLTKGNCVMAKNCLKKKKTIEQLLSKVEGTMESMEQQLFSIESANLNLETMRAMQEGAKAMKTIHSGLDIDKVDETMDEIREQVELGDEISDAISRPLITGANEVDEDELDEELDMLAQENANQETSKIVNNNVNAAPISENKVSLPSVPSNKIKQSENSVKDGEEEEDEEDEDEKALRELQAEMGL
modifications: MTSL nitroxide spin label on cysteines 60 and 66
notes: Snf7 (Vps32), S. cerevisiae, full length; also called double-labeled Snf7^(R52E K60C A66C); source: E. coli BL21 or C41, purified (TALON, Superdex-200)

Data set [1] concerns the molecule itself. Put plainly: negative stain TEM; recombinant Snf7 proteins, protofilament formation seen by negative stain transmission electron microscopy; as in Henne et al., 2012.
In data set [2] the target is T1, full-length Snf7^(R52E E95K E102K E109K) (Saccharomyces cerevisiae, UniProt P39929 1-240, R52E | E95K | E102K | E109K).
T1 construct: Snf7 (Vps32), S. cerevisiae, full length, charge inversion on α2/3; source: E. coli BL21 or C41, purified (TALON, Superdex-200)
T1 sequence (looked up): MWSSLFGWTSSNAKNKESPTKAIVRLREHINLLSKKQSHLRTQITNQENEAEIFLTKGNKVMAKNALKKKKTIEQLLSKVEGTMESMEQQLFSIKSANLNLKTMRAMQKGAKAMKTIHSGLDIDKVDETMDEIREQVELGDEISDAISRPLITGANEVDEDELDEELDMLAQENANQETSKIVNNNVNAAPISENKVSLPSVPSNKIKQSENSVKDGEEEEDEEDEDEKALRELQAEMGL
Described as above. The following applies: both partners purified.

In data set [3] the target is B9. The experiment in a line: DEER (pulsed dipolar ESR spectroscopy); MTSL-labeled full-length Snf7 proteins (10-30 μM), alone or diluted with unlabeled Snf7^R52E, incubated with DOPC/DOPS/PI(3)P liposomes at room temperature for 15 min, pelleted by ultracentrifugation; 150 mM NaCl, 20 mM HEPES pD7.4; DEER at 60 K. Conditions: both partners purified.
The target in data set [4] is B1. Described as above. Conditions: both partners purified.
Data set [5] deals with the molecule itself. The experiment in a line: crystal structure; Snf7^core crystals, conformation A (2.4 Å) and B (1.6 Å), space group P2_1, one molecule in the asymmetric unit; protofilaments formed in the crystal lattice; grown at pH 5.5 (MES:NaOH, NaCl, PEG20,000), 4 °C.

With B1, the binding result in data set [1] is listed as “binds”.

B2: full-length Snf7^(R52E E88C), MTSL-labeled (natural protein, Saccharomyces cerevisiae, UniProt P39929 1-240, looked up)
chain: MWSSLFGWTSSNAKNKESPTKAIVRLREHINLLSKKQSHLRTQITNQENEAEIFLTKGNKVMAKNALKKKKTIEQLLSKVEGTMESMCQQLFSIESANLNLETMRAMQEGAKAMKTIHSGLDIDKVDETMDEIREQVELGDEISDAISRPLITGANEVDEDELDEELDMLAQENANQETSKIVNNNVNAAPISENKVSLPSVPSNKIKQSENSVKDGEEEEDEEDEDEKALRELQAEMGL
modifications: MTSL nitroxide spin label on cysteine 88
notes: Snf7 (Vps32), S. cerevisiae, full length; source: E. coli BL21 or C41, purified (TALON, Superdex-200)
As for B2, the binding result in data set [1] was “binds”.

B3: full-length Snf7^(R52E K35C), MTSL-labeled (natural protein, Saccharomyces cerevisiae, UniProt P39929 1-240, looked up)
chain: MWSSLFGWTSSNAKNKESPTKAIVRLREHINLLSCKQSHLRTQITNQENEAEIFLTKGNKVMAKNALKKKKTIEQLLSKVEGTMESMEQQLFSIESANLNLETMRAMQEGAKAMKTIHSGLDIDKVDETMDEIREQVELGDEISDAISRPLITGANEVDEDELDEELDMLAQENANQETSKIVNNNVNAAPISENKVSLPSVPSNKIKQSENSVKDGEEEEDEEDEDEKALRELQAEMGL
modifications: MTSL nitroxide spin label on cysteine 35
notes: as for B2
As to B3, in data set [1], the binding result is “binds”.

B4: full-length Snf7^(R52E R25E H29E K36E) (natural protein, Saccharomyces cerevisiae, UniProt P39929 1-240, looked up)
chain: MWSSLFGWTSSNAKNKESPTKAIVELREEINLLSKEQSHLRTQITNQENEAEIFLTKGNKVMAKNALKKKKTIEQLLSKVEGTMESMEQQLFSIESANLNLETMRAMQEGAKAMKTIHSGLDIDKVDETMDEIREQVELGDEISDAISRPLITGANEVDEDELDEELDMLAQENANQETSKIVNNNVNAAPISENKVSLPSVPSNKIKQSENSVKDGEEEEDEEDEDEKALRELQAEMGL
notes: Snf7 (Vps32), S. cerevisiae, full length, charge inversion on α1; source: E. coli BL21 or C41, purified (TALON, Superdex-200)
Turning to B4, the binding result in data set [2] is listed as “binds”.

B5: full-length Snf7^(R52E T20C), MTSL-labeled (natural protein, Saccharomyces cerevisiae, UniProt P39929 1-240, looked up)
chain: MWSSLFGWTSSNAKNKESPCKAIVRLREHINLLSKKQSHLRTQITNQENEAEIFLTKGNKVMAKNALKKKKTIEQLLSKVEGTMESMEQQLFSIESANLNLETMRAMQEGAKAMKTIHSGLDIDKVDETMDEIREQVELGDEISDAISRPLITGANEVDEDELDEELDMLAQENANQETSKIVNNNVNAAPISENKVSLPSVPSNKIKQSENSVKDGEEEEDEEDEDEKALRELQAEMGL
modifications: MTSL nitroxide spin label on cysteine 20
notes: as for B2
Take B5: the binding result in data set [1] is “binds”.

B6: full-length Snf7^(R52E H118C), MTSL-labeled (natural protein, Saccharomyces cerevisiae, UniProt P39929 1-240, looked up)
chain: MWSSLFGWTSSNAKNKESPTKAIVRLREHINLLSKKQSHLRTQITNQENEAEIFLTKGNKVMAKNALKKKKTIEQLLSKVEGTMESMEQQLFSIESANLNLETMRAMQEGAKAMKTICSGLDIDKVDETMDEIREQVELGDEISDAISRPLITGANEVDEDELDEELDMLAQENANQETSKIVNNNVNAAPISENKVSLPSVPSNKIKQSENSVKDGEEEEDEEDEDEKALRELQAEMGL
modifications: MTSL nitroxide spin label on cysteine 118
notes: as for B2
Turning to B6, in data set [1], the binding result is “binds”.

B7: full-length Snf7^(R52E K60C), MTSL-labeled (natural protein, Saccharomyces cerevisiae, UniProt P39929 1-240, looked up)
chain: MWSSLFGWTSSNAKNKESPTKAIVRLREHINLLSKKQSHLRTQITNQENEAEIFLTKGNCVMAKNALKKKKTIEQLLSKVEGTMESMEQQLFSIESANLNLETMRAMQEGAKAMKTIHSGLDIDKVDETMDEIREQVELGDEISDAISRPLITGANEVDEDELDEELDMLAQENANQETSKIVNNNVNAAPISENKVSLPSVPSNKIKQSENSVKDGEEEEDEEDEDEKALRELQAEMGL
modifications: MTSL nitroxide spin label on cysteine 60
notes: as for B2
B7: in data set [1], the binding result is given as “binds”.

B8: full-length Snf7^(R52E G140C), MTSL-labeled (natural protein, Saccharomyces cerevisiae, UniProt P39929 1-240, looked up)
chain: MWSSLFGWTSSNAKNKESPTKAIVRLREHINLLSKKQSHLRTQITNQENEAEIFLTKGNKVMAKNALKKKKTIEQLLSKVEGTMESMEQQLFSIESANLNLETMRAMQEGAKAMKTIHSGLDIDKVDETMDEIREQVELCDEISDAISRPLITGANEVDEDELDEELDMLAQENANQETSKIVNNNVNAAPISENKVSLPSVPSNKIKQSENSVKDGEEEEDEEDEDEKALRELQAEMGL
modifications: MTSL nitroxide spin label on cysteine 140
notes: as for B2
Consider B8, for which, in data set [1], the binding result was “binds”.

B9: the binding result in data set [1] was “binds”.

B10: full-length Snf7^R52E (natural protein, Saccharomyces cerevisiae, UniProt P39929 1-240, looked up)
chain: MWSSLFGWTSSNAKNKESPTKAIVRLREHINLLSKKQSHLRTQITNQENEAEIFLTKGNKVMAKNALKKKKTIEQLLSKVEGTMESMEQQLFSIESANLNLETMRAMQEGAKAMKTIHSGLDIDKVDETMDEIREQVELGDEISDAISRPLITGANEVDEDELDEELDMLAQENANQETSKIVNNNVNAAPISENKVSLPSVPSNKIKQSENSVKDGEEEEDEEDEDEKALRELQAEMGL
notes: purification as in Henne et al., 2012; also called unlabeled Snf7^R52E; source: E. coli BL21 or C41, purified (TALON, Superdex-200)
With B10, the binding result in data set [3], in data set [4] and in data set [1] was “binds” in each case.

B11: Snf7^core (Saccharomyces cerevisiae Snf7 residues 12-150) (domain or fragment, UniProt P39929 12-150, looked up)
chain: NAKNKESPTKAIVRLREHINLLSKKQSHLRTQITNQENEARIFLTKGNKVMAKNALKKKKTIEQLLSKVEGTMESMEQQLFSIESANLNLETMRAMQEGAKAMKTIHSGLDIDKVDETMDEIREQVELGDEISDAISRP
notes: Snf7 (Vps32), S. cerevisiae, core domain, residues 12-150; One molecule in the asymmetric unit; the protofilament is built by the crystal lattice; also called Snf7 core domain; open conformation A; source: E. coli Rosetta, purified (TALON, Superdex-200); not shown: His6-Sumo, N-terminal, cleaved
In the case of B11, the binding result in data set [5] is “binds”.
